One data set addresses T1, PydAc (Clostridium chromiireducens, UniProt A0A399ILH0).
T1 construct: gene preA; FMN and two Fdx domains, no FAD/NADPH domain; strain C1 (DSM12136) is given only for the growth test
T1 sequence (A0A399ILH0 1-499): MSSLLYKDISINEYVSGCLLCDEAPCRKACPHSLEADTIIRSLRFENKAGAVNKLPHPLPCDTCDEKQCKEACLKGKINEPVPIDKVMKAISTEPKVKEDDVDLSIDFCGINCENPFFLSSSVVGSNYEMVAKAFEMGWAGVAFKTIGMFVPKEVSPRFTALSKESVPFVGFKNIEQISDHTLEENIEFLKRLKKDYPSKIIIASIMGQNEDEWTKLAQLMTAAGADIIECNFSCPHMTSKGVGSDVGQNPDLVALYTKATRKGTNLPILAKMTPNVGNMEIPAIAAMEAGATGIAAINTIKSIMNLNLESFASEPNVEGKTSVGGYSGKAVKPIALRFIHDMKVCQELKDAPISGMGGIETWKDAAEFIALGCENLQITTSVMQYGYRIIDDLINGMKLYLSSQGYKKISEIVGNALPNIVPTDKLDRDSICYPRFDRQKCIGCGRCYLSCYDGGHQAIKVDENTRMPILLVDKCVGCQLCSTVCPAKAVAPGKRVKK
Nature of the data set: spectrophotometric assay of reduced methyl viologen oxidation at […] nm, anaerobic; activity with and without added FMN. Type of data set: biochemical. The following applies: 15 uM FMN added, uracil, pH 7.5, predominantly apo recombinant enzyme.

Substrate in the data set “purified protein”: O=c1cc[nH]c(=O)[nH]1
Nature of the data set: purified protein. Format: biochemical, Clostridium chromiireducens. As to conditions: 0.1 mM reduced methyl viologen (MV+), 15 uM FMN, 0.1 M KCl, 20 mM Tris-HCl, pH 7.5, 0.2 uM reconstituted PydAc.

The record followed here is publication PMC7332683, “A ferredoxin-dependent dihydropyrimidine dehydrogenase in Clostridium chromiireducens” (Bioscience Reports, 2020).

As for `Cc1cc2nc3c(=O)[nH]c(=O)nc-3n(C[C@H](O)[C@H](O)[C@H](O)COP(=O)(O)O)c2cc1C` [FMN], the “spectrophotometric assay of reduced methyl viologen oxidation at 600 nm, anaerob” value on PydAc is on record as “omission of FMN from the assay mixture led to a large decrease in activity”.

B1: PydAc (Clostridium chromiireducens) (protein)
chain: MSSLLYKDISINEYVSGCLLCDEAPCRKACPHSLEADTIIRSLRFENKAGAVNKLPHPLPCDTCDEKQCKEACLKGKINEPVPIDKVMKAISTEPKVKEDDVDLSIDFCGINCENPFFLSSSVVGSNYEMVAKAFEMGWAGVAFKTIGMFVPKEVSPRFTALSKESVPFVGFKNIEQISDHTLEENIEFLKRLKKDYPSKIIIASIMGQNEDEWTKLAQLMTAAGADIIECNFSCPHMTSKGVGSDVGQNPDLVALYTKATRKGTNLPILAKMTPNVGNMEIPAIAAMEAGATGIAAINTIKSIMNLNLESFASEPNVEGKTSVGGYSGKAVKPIALRFIHDMKVCQELKDAPISGMGGIETWKDAAEFIALGCENLQITTSVMQYGYRIIDDLINGMKLYLSSQGYKKISEIVGNALPNIVPTDKLDRDSICYPRFDRQKCIGCGRCYLSCYDGGHQAIKVDENTRMPILLVDKCVGCQLCSTVCPAKAVAPGKRVKK
notes: FMN and two Fdx domains, no FAD/NADPH domain; strain C1 (DSM12136) is given only for the growth test
As to B1, in “purified protein”, the Km is 130 ± 30 µM and the kcat came to 0.92 ± 0.04 s⁻¹.

In general, Km refers to the substrate concentration at which the rate is half of its maximum. Usually kcat stands for the number of substrate molecules converted per active site and unit of time at saturation.
